Experiments:
Assay in all cases: SEC-MALS; 100 ug purified Strep-tagged PfPdx1 on Superdex 200 10/30 with static light scattering (miniDAWN Tristar); 100 mM Tris-HCl pH 8.0, 150 mM NaCl, no amino acid added
[1] = biological target: PfPdx1 K83A (P. falciparum) (UniProt C6KT50)
[2] = biological target: PfPdx1 ERR (E136A/R139A/R140A) triple mutant (P. falciparum) (UniProt C6KT50)
[3] = biological target: PfPdx1 D26A (P. falciparum) (UniProt C6KT50)

## PfPdx1 K83A (from UniProt C6KT50 1-301) (enzyme)
[1]
  stoichiometry N: 12

## PfPdx1 ERR (E136A/R139A/R140A) triple mutant (from UniProt C6KT50 1-301) (enzyme)
[2]
  stoichiometry N: 12

## PfPdx1 D26A (from UniProt C6KT50 1-301) (enzyme)
[3]
  stoichiometry N: 12

Source: publication PMC2266796
